Results from patent US20180271960A1, “METHOD TO TREAT CANCER USING ARGININE DELPETOR AND ORNITHINE DECARBOXYLASE (ODC) INHIBITOR” (Bio-Cancer Treatment International Ltd., priority 2015, published 2018).
Entries after “also recorded” stand apart in the source; their conditions may differ.

System: HCC4006 lung adenocarcinoma xenografts
Assay: HCC4006 lung adenocarcinoma xenograft
Type: in vivo, BALB/c nude mice
Method: In one example embodiment, ten million lung adenocarcinoma cells from cell lines H1650, H1975, and HCC4006 are engrafted subcutaneously in BALB/cnude mice (4 weeks old with body weight of 10-14 g). Body weight, clinical signs and survival times are recorded.
Two groups of the mice, with eight mice in each group, are tested. Control group (negative control) receives physiological saline and treatment group receives 20 mg/kg of PEG-BCT-100. PEG-BCT-100 is administered via intraperitoneal (IP) injection, twice weekly, until euthanization.
In one example embodiment, ten million lung adenocarcinoma cells from cell lines H1650, H1975 and HCC4006 are engrafted subcutaneously in BALB/cnude mice (4 weeks old with body weight of 10-14 g). Body weight, clinical signs and survival times are recorded.
Four groups of the mice, with eight mice in each group, are tested. Control group (negative control) receives physiological saline, and the three treatment groups respectively receive 20 mg/kg of PEG-BCT-100 alone, 2% w/v DFMO in drinking water, and combination of 20 mg/kg of PEG-BCT-100 and 2% w/v DFMO. PEG-BCT-100 is administered intraperitoneally, twice a week, until euthanization while DFMO is supplied in drinking water at 2% w/v.

B1: PEG-BCT-100: pegylated recombinant human arginase I (SEQ ID NO.1, or SEQ ID NO.3 with six histidines), about 6-12 PEG molecules per arginase (protein, UniProt P05089 1-322, looked up)
Arginase-1: MSAKSRTIGIIGAPFSKGQPRGGVEEGPTVLRKAGLLEKLKEQECDVKDYGDLPFADIPNDSPFQIVKNPRSVGKASEQLAGKVAEVKKNGRISLVLGGDHSLAIGSISGHARVHPDLGVIWVDAHTDINTPLTTTSGNLHGQPVSFLLKELKGKIPDVPGFSWVTPCISAKDIVYIGLRDVDPGEHYILKTLGIKYFSMTEVDRLGIGKVMEETLSYLLGRKKRPIHLSFDVDGLDPSFTPATGTPVVGGLTYREGLYITEEIYKTGLLSGLDIMEVNPSLGKTPEEVTRTVNTAVAITLACFGLAREGNHKPIDYLNPPK
modifications: PEG, about 6-12 per arginase; optional His6 tag
B1 was tested, and the tumour growth (PEG-BCT-100 20 mg/kg IP twice weekly, DFMO 2% w/v in drinking water, 20 mg/kg) was “suppresses tumor growth; also recorded: inhibits tumour growth”, the “in vivo ASS1 expression (Western blot)” value (PEG-BCT-100 20 mg/kg vs control arm) was “remains unchanged” and the “in vivo ODC expression (Western blot)” value (PEG-BCT-100 20 mg/kg vs control arm, 20 mg/kg) was “remains negative; also recorded: does not show upregulation of ODC”.
